Test results reported in the supplement of paper PMC10567573.

B1: ZNF649 (parent)
chain: MTKAQESLTLEDVAVDFTWEEWQF
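Also: lentivirally expressed fusions sorted by FACS into six bins by GFP to DsRed ratio, PSI derived from sequencing read proportions per bin multiplied by bin number.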

Variants of: B1
Test: protein stability index of a GFP-peptide fusion (GPS, HEK-293T) (PSI 1-6); higher = more stable
Details: c terminus: a fixed tail appended
In the case of MTKAQESLTLEDVAVDFTWEEWQG, the protein stability index is reported as 4.45. With MTKAQESLTLEDVAVDFTWEEHQF the protein stability index was 4.13. In the case of MTGAQESLTLEDVAVDFTWEEWQF, the protein stability index is reported as 3.36. Work on MTKAQESLTLEDVAVDNTWEEWQF yielded a protein stability index of 3.64. MTKAQESLTLEDVAVDFTWEMWQF gave a protein stability index of 2.25. MTKAQESLTLEDGAVDFTWEEWQF showed a protein stability index of 3.64. MTKAQESLTSEDVAVDFTWEEWQF showed a protein stability index of 4.07. MTKAQEMLTLEDVAVDFTWEEWQF gave a protein stability index of 2.69. Work on MTKWQESLTLEDVAVDFTWEEWQF yielded a protein stability index of 2.15. Variant MTKAQESLTLEDVAVDFHWEEWQF has a protein stability index of 2.63. For MTKAQEPLTLEDVAVDFTWEEWQF, the protein stability index was 3.14. MTKAQESLTLEDVAVDDTWEEWQF gave a protein stability index of 4.75. For MTKAQESLTLEDVLVDFTWEEWQF, the protein stability index was 1.74. In the case of MTKAQESLTGEDVAVDFTWEEWQF, the protein stability index is reported as 4.14. MTKAQESLTLEDVAVDFTWEELQF showed a protein stability index of 3.62. Work on MTKAQESLTLEDVARDFTWEEWQF yielded a protein stability index of 4.16. In the case of MTKAQESLTLEDVAVDFTWEECQF, the protein stability index is reported as 3.12. With MTKARESLTLEDVAVDFTWEEWQF the protein stability index was 2.46. MTKAPESLTLEDVAVDFTWEEWQF showed a protein stability index of 3.04. For MTKAQESLTLEDVAKDFTWEEWQF, the protein stability index was 3.95. For MTKAQESLTLEDVAVDFTWEEWLF, the protein stability index was 2.05. MTKAQESLTLEDVAVDFTWEEWQI gave a protein stability index of 2.51. For MTKAQESLTAEDVAVDFTWEEWQF, the protein stability index was 3.8. MTKAQESLTLEDVAVDFTWFEWQF showed a protein stability index of 1.44. With MTKAQEWLTLEDVAVDFTWEEWQF the protein stability index was 1.72. ITKAQESLTLEDVAVDFTWEEWQF showed a protein stability index of 2.83. MIKAQESLTLEDVAVDFTWEEWQF showed a protein stability index of 2.75. In the case of MTKAQSSLTLEDVAVDFTWEEWQF, the protein stability index is reported as 2.33. With MTKAQESLTLEDVAVLFTWEEWQF the protein stability index was 2.73. MTKAQESLTLEDVAVDFEWEEWQF showed a protein stability index of 3.32. With MTKAQESLTLEDVNVDFTWEEWQF the protein stability index was 2.92. For MTKAQEQLTLEDVAVDFTWEEWQF, the protein stability index was 3.68. GTKAQESLTLEDVAVDFTWEEWQF showed a protein stability index of 3.43. Variant MTKAGESLTLEDVAVDFTWEEWQF has a protein stability index of 2.84. Work on MTKAQESLTLEDVAVDFQWEEWQF yielded a protein stability index of 2.75. For MTKAQESLTLEDVAVDFTWEEWQH, the protein stability index was 4.01. Work on MTKAQESLTLEDVAVDATWEEWQF yielded a protein stability index of 4.42. In the case of MTKAQESLTLEDVAVDFTWEPWQF, the protein stability index is reported as 1.89. MTKAQEHLTLEDVAVDFTWEEWQF showed a protein stability index of 2.6. For MTKAQESLTLEDVAVDFTWEEFQF, the protein stability index was 3.41. Work on MTPAQESLTLEDVAVDFTWEEWQF yielded a protein stability index of 3.33. Variant MTKAQESLTTEDVAVDFTWEEWQF has a protein stability index of 4.05. MTKAQEDLTLEDVAVDFTWEEWQF gave a protein stability index of 3.75. Variant MTKAQESLTLPDVAVDFTWEEWQF has a protein stability index of 2.69. With MTKAQESLTLYDVAVDFTWEEWQF the protein stability index was 1.28. MTKAQESLTLEDCAVDFTWEEWQF gave a protein stability index of 3.37. Work on MTKAQESLTLEDVWVDFTWEEWQF yielded a protein stability index of 3.29. For MTKKQESLTLEDVAVDFTWEEWQF, the protein stability index was 3.15. For MTKAQESLTLEDVAVDFYWEEWQF, the protein stability index was 1.36. MTKAQESLTYEDVAVDFTWEEWQF showed a protein stability index of 3.24. Work on MTKAQESLTLCDVAVDFTWEEWQF yielded a protein stability index of 2.12. MTKAQESLTLKDVAVDFTWEEWQF gave a protein stability index of 2.62. Work on MTKAQPSLTLEDVAVDFTWEEWQF yielded a protein stability index of 2.78. With MTKAQESLTLEDVAVDFTWEQWQF the protein stability index was 3.08. MTKAQEALTLEDVAVDFTWEEWQF gave a protein stability index of 2.82. With YTKAQESLTLEDVAVDFTWEEWQF the protein stability index was 2.96. With MTKAQESLTLEDVATDFTWEEWQF the protein stability index was 4.1. In the case of MTKAQESLTLADVAVDFTWEEWQF, the protein stability index is reported as 2.39. MTKAQESLTLEDVAVDFTWYEWQF showed a protein stability index of 2. MTKAQESLGLEDVAVDFTWEEWQF gave a protein stability index of 3.49. In the case of MHKAQESLTLEDVAVDFTWEEWQF, the protein stability index is reported as 2.88. MTKAQESLTLEDVAVHFTWEEWQF showed a protein stability index of 3.23. MTKAQESLTLEDVAVDFTWMEWQF showed a protein stability index of 2.57. For MTKAQESLSLEDVAVDFTWEEWQF, the protein stability index was 3.43. In the case of MSKAQESLTLEDVAVDFTWEEWQF, the protein stability index is reported as 2.55. Variant MTKAQESLTLEDVAVDFTWEKWQF has a protein stability index of 1.95. Variant MTKAQESLTLEDVAVDFTNEEWQF has a protein stability index of 4.37. With MTKADESLTLEDVAVDFTWEEWQF the protein stability index was 3.4. Work on MTKAQESLTFEDVAVDFTWEEWQF yielded a protein stability index of 3.61. In the case of MTKAQESLTLEVVAVDFTWEEWQF, the protein stability index is reported as 1.92. For MTKAQGSLTLEDVAVDFTWEEWQF, the protein stability index was 2.74. For MPKAQESLTLEDVAVDFTWEEWQF, the protein stability index was 3.66. MTKHQESLTLEDVAVDFTWEEWQF showed a protein stability index of 3.48. MTKAQESLTLDDVAVDFTWEEWQF showed a protein stability index of 3.57. MTKAQESLTLEDVAVDFPWEEWQF gave a protein stability index of 3.16. For MTKAQESLTLEDVAVDFTSEEWQF, the protein stability index was 4.29. Variant MTKAQESLTLEDVAVDLTWEEWQF has a protein stability index of 4.03. Work on MTKAQESLTLEGVAVDFTWEEWQF yielded a protein stability index of 2.55. MTKAQESLTLEDVAVDFTWEEWQE showed a protein stability index of 5.32. MTKAQESLTLEDVFVDFTWEEWQF gave a protein stability index of 2.08. Work on MTKAQESFTLEDVAVDFTWEEWQF yielded a protein stability index of 2.5. Work on MTKAQESLTLSDVAVDFTWEEWQF yielded a protein stability index of 2.83. Work on MTKAQESATLEDVAVDFTWEEWQF yielded a protein stability index of 4.22. MTVAQESLTLEDVAVDFTWEEWQF gave a protein stability index of 3.23. With MTKAQESVTLEDVAVDFTWEEWQF the protein stability index was 3.59. MTKAQESLTLEDVAVDFTWEEVQF showed a protein stability index of 3.96. MTKAHESLTLEDVAVDFTWEEWQF gave a protein stability index of 3.2. For MTKAQESLTLEDVAVDFTKEEWQF, the protein stability index was 3.58. MTKAQESLTLFDVAVDFTWEEWQF showed a protein stability index of 1.44. With MTKAQESLTLEDVAVEFTWEEWQF the protein stability index was 1.85. MTKAQESLTLEDVAVDGTWEEWQF showed a protein stability index of 3.81. Work on MTKAQESLTLEDVAVDFTWEEKQF yielded a protein stability index of 4.76. Variant MTKAQASLTLEDVAVDFTWEEWQF has a protein stability index of 1.87. Work on MTKAQESLTLEDVAVDFDWEEWQF yielded a protein stability index of 4.1.
